Common to all, as to format: biochemical
Series [1] is described as follows: ω-transaminase activity, adipate semialdehyde to 6-aminohexanoate (forward direction). As to conditions: cell free extract, 10 mM adipate semialdehyde, 10 mM L-alanine, pH 7.5, 25° C., 4 h, RP-HPLC. On the procedure: (§1) A nucleotide sequence encoding a His-tag was added to the nucleic acid sequences from Chromobacterium violaceum, Pseudomonas aeruginosa, Pseudomonas syringae, Rhodobacter sphaeroides, and Vibrio fluvialis encoding the ω-transaminases of SEQ ID NOs: 7, 8, 9, 10 and 12, respectively (see FIG. 6) such that N-terminal HIS tagged ω-transaminases could be produced. Each of the resulting modified genes was cloned into a pET21a expression vector under control of the T7 promoter and each expression vector was transformed into a BL21[DE3] E. coli host. The resulting recombinant E. coli strains were cultivated at 37° C. in a 250 mL shake flask culture containing 50 mL LB media and antibiotic selection pressure, with shaking at 230 rpm. Each culture was induced overnight at 16° C. using 1 mM IPTG.
(§2) The pellet from each induced shake flask culture was harvested via centrifugation. Each pellet was resuspended and lysed via sonication. The cell debris was separated from the supernatant via centrifugation and the cell free extract was used immediately in enzyme activity assays.
Enzyme activity in the forward direction (i.e., adipate semialdehyde to 6-aminohexanoate) was confirmed for the transaminases of SEQ ID NO 7, SEQ ID NO 8, SEQ ID NO 9, SEQ ID NO 10 and SEQ ID NO 12. Enzyme activity assays were performed in a buffer composed of a final concentration of 50 mM HEPES buffer (pH=7.5), 10 mM adipate semialdehyde, 10 mM L-alanine and 100 μM pyridoxyl 5′ phosphate. Each enzyme activity assay reaction was initiated by adding a cell free extract of the ω-transaminase gene product or the empty vector control to the assay buffer containing the adipate semialdehyde and incubated at 25° C. for 4 h, with shaking at 250 rpm. The formation of pyruvate was quantified via RP-HPLC.

The nature of series [2]: ω-transaminase activity, 6-aminohexanoate to adipate semialdehyde (reverse direction). As to conditions: cell free extract, 10 mM 6-aminohexanoate, 10 mM pyruvate, pH 7.5, 25° C., 24 h, RP-HPLC. On the procedure: as §1, §2
Enzyme activity assays in the reverse direction (i.e., 6-aminohexanoate to adipate semialdehyde) were performed in a buffer composed of a final concentration of 50 mM HEPES buffer (pH=7.5), 10 mM 6-aminohexanoate, 10 mM pyruvate and 100 μM pyridoxyl 5′ phosphate. Each enzyme activity assay reaction was initiated by adding cell free extract of the ω-transaminase gene product or the empty vector control to the assay buffer containing the 6-aminohexanoate and incubated at 25° C. for 24 h, with shaking at 250 rpm. The formation of L-alanine from pyruvate was quantified via RP-HPLC.

The nature of series [3]: β-ketothiolase activity, 4-hydroxybutyryl-CoA and acetyl-CoA to 3-oxo-6-hydroxyhexanoyl-CoA. As to conditions: 5 μM enzyme and ChnC lactonase, 10 mM γ-butyrolactone, 5 mM acetyl-CoA, pH 6.8, 30° C., 3 hour. On the procedure: A nucleotide sequence encoding a N-terminal His-tag was added to the gene from Clostridium aminobutyricum encoding the β-ketothiolase activity of SEQ ID NO: 14 (see FIG. 6) such that a N-terminal HIS tagged enzyme could be produced. The resulting modified gene was cloned into a pET15b expression vector under control of the T7 promoter and the expression vector was transformed into a BL21[DE3] E. coli host. The resulting recombinant E. coli strain was cultivated at 37° C. in a 1 L shake flask culture containing 350 mL LB media and ampicillin antibiotic selection pressure, with shaking at 230 rpm. Each culture was induced overnight at 25° C. using 1 mM IPTG.
The pellet from each induced shake flask culture was harvested via centrifugation. Each pellet was resuspended and lysed via sonication. The cell debris was separated from the supernatant via centrifugation. The enzyme was purified from the supernatant using Ni-affinity chromatography, buffer exchanged and concentrated into 50 mM potassium phosphate buffer (pH=6.8) via ultrafiltration.
Enzyme activity assays converting 4-hydroxybutyryl-CoA and acetyl-CoA to 3-oxo-6-hydroxyhexanoyl-CoA were performed in triplicate in a buffer composed of a final concentration of 50 mM potassium phosphate buffer (pH=6.8), 75 μM ZnCl2, 10 mM γ-butyrolactone and 5 mM acetyl-CoA. […] The formation of 3-oxo-6-hydroxyhexanoyl-CoA was determined via LC-MS.

Series [4] in a line: carboxylate reductase activity, adipate semialdehyde to hexanedial. The following applies: purified enzyme with sfp phosphopantetheine transferase, 2 mM adipate semialdehyde, pH 7.5, room temperature, 20 min. On the procedure:
The N-terminal His-tagged carboxylate reductase of SEQ ID NO 6 (see Example 2 and FIG. 6) was assayed using adipate semialdehyde as substrate. The enzyme activity assay was performed in triplicate in a buffer composed of a final concentration of 50 mM HEPES buffer (pH=7.5), 2 mM adipate semialdehyde, 10 mM MgCl2, 1 mM ATP and 1 mM NADPH. The enzyme activity assay reaction was initiated by adding purified carboxylate reductase and phosphopantetheine transferase or the empty vector control to the assay buffer containing the adipate semialdehyde and then incubated at room temperature for 20 min. The consumption of NADPH was monitored by absorbance at 340 nm.

B1: SEQ ID NO 12: Vibrio fluvialis ω-transaminase, Genbank Accession No. AEA39183.1, N-terminal His-tagged (protein, listed as Vibrio fluvialis)
chain: MNKPQSWEARAETYSLYGFTDMPSLHQRGTVVVTHGEGPYIVDVNGRRYLDANSGLWNMVAGFDHKGLIDAAKAQYERFPGYHAFFGRMSDQTVMLSEKLVEVSPFDSGRVFYTNSGSEANDTMVKMLWFLHAAEGKPQKRKILTRWNAYHGVTAVSASMTGKPYNSVFGLPLPGFVHLTCPHYWRYGEEGETEEQFVARLARELEETIQREGADTIAGFFAEPVMGAGGVIPPAKGYFQAILPILRKYDIPVISDEVICGFGRTGNTWGCVTYDFTPDAIISSKNLTAGFFPMGAVILGPELSKRLETAIEAIEEFPHGFTASGHPVGCAIALKAIDVVMNEGLAENVRRLAPRFEERLKHIAERPNIGEYRGIGFMWALEAVKDKASKTPFDGNLSVSERIANTCTDLGLICRPLGQSVVLCPPFILTEAQMDEMFDKLEKALDKVFAEVA
modifications: N-terminal His tag
In the case of B1, the “acceptance of adipate semialdehyde as substrate (conversion of L-alanine to pyruvate vs empty vector control)” value in series [1] was “accepted adipate semialdehyde as substrate”. For the same molecule, in series [2], the “acceptance of 6-aminohexanoate as substrate (conversion of pyruvate to L-alanine vs empty vector control)” value is “accepted 6-aminohexanote as substrate”.

B2: SEQ ID NO 14: Clostridium aminobutyricum CoA-transferase, GenBank Accession No. CAB60036.2, with β-ketothiolase activity, N-terminal His-tagged (protein, listed as Clostridium aminobutyricum)
chain: MDWKKIYEDRTCTADEAVKSIKSGDRVLFAHCVAEPPVLVEAMVANAAAYKNVTVSHMVTLGKGEYSKPEYKENFTFEGWFTSPSTRGSIAEGHGQFVPVFFHEVPSLIRKDIFHVDVFMVMVSPPDHNGFCCVGVSSDYTMQAIKSAKIVLAEVNDQVPVVYGDTFVHVSEIDKFVETSHPLPEIGLPKIGEVEAAIGKHCASLIEDGSTLQLGIGAIPDAVLSQLKDKKHLGIHSEMISDGVVDLYEAGVIDCSQKSIDKGKMAITFLMGTKRLYDFAANNPKVELKPVDYINHPSVVAQCSKMVCINACLQVDFMGQIVSDSIGTKQFSGVGGQVDFVRGASMSIDGKGKAIIAMPSVAKKKDGSMISKIVPFIDHGAAVTTSRNDADYVVTEYGIAEMKGKSLQDRARALINIAHPDFKDELKAEFEKRFNAAF
modifications: N-terminal His tag
With B2, the “acceptance of 4-hydroxybutyryl-CoA and acetyl-CoA as substrates, formation of 3-oxo-6-hydroxyhexanoyl-CoA (LC-MS)” value in series [3] was “accepted 4-hydroxybutyryl-CoA and acetyl-CoA as substrates”.

B3: SEQ ID NO 6: Segniliparus rotundus carboxylate reductase, Genbank Accession No. ADG98140.1, N-terminal His-tagged (protein, listed as Segniliparus rotundus)
chain: MTQSHTQGPQASAAHSRLARRAAELLATDPQAAATLPDPEVVRQATRPGLRLAERVDAILSGYADRPALGQRSFQTVKDPITGRSSVELLPTFDTITYRELRERATAIASDLAHHPQAPAKPGDFLASIGFISVDYVAIDIAGVFAGLTAVPLQTGATLATLTAITAETAPTLFAASIEHLPTAVDAVLATPSVRRLLVFDYRAGSDEDREAVEAAKRKIADAGSSVLVDVLDEVIARGKSAPKAPLPPATDAGDDSLSLLIYTSGSTGTPKGAMYPERNVAHFWGGVWAAAFDEDAAPPVPAINITFLPLSHVASRLSLMPTLARGGLMHFVAKSDLSTLFEDLKLARPTNLFLVPRVVEMLYQHYQSELDRRGVQDGTREAEAVKDDLRTGLLGGRILTAGFGSAPLSAELAGFIESLLQIHLVDGYGSTEAGPVWRDGYLVKPPVTDYKLIDVPELGYFSTDSPHPRGELAIKTQTILPGYYKRPETTAEVFDEDGFYLTGDVVAQIGPEQFAYVDRRKNVLKLSQGEFVTLAKLEAAYSSSPLVRQLFVYGSSERSYLLAVIVPTPDALKKFGVGEAAKAALGESLQKIARDEGLQSYEVPRDFIIETDPFTVENGLLSDARKSLRPKLKEHYGERLEAMYKELADGQANELRDIRRGVQQRPTLETVRRAAAAMLGASAAEIKPDAHFTDLGGDSLSALTFSNFLHDLFEVDVPVGVIVSAANTLGSVAEHIDAQLAGGRARPTFATVHGKGSTTIKASDLTLDKFIDEQTLEAAKHLPKPADPPRTVLLTGANGWLGRFLALEWLERLAPAGGKLITIVRGKDAAQAKARLDAAYESGDPKLAGHYQDLAATTLEVLAGDFSEPRLGLDEATWNRLADEVDFISHPGALVNHVLPYNQLFGPNVAGVAEIIKLAITTRIKPVTYLSTVAVAAGVEPSALDEDGDIRTVSAERSVDEGYANGYGNSKWGGEVLLREAHDRTGLPVRVFRSDMILAHQKYTGQVNATDQFTRLVQSLLATGLAPKSFYELDAQGNRQRAHYDGIPVDFTAESITTLGGDGLEGYRSYNVFNPHRDGVGLDEFVDWLIEAGHPITRIDDYDQWLSRFETSLRGLPESKRQASVLPLLHAFARPGPAVDGSPFRNTVFRTDVQKAKIGAEHDIPHLGKALVLKYADDIKQLGLL
modifications: N-terminal His tag
Consider B3, for which the “acceptance of adipate semialdehyde as substrate (NADPH consumption, absorbance at 340 nm, vs empty vector control)” value in series [4] was “accepted adipate semialdehyde as substrate”.

(Values after US20160160255A1, “Methods and Materials for Producing 6-Carbon Monomers” (INVISTA North America S.á.r.l., priority 2014, published 2016).)
